In PMC4118983, “Structural Insights into Calcium-Bound S100P and the V Domain of the RAGE Complex” (PLoS ONE, 2014):
Positions count from the first letter of the chain named. Names may count otherwise. “And” between values parts separate entries of the source, which are not always exact repeats. Identical values can stand only once. Blank lines part the entries; values can stand above or below the binder they belong to.

Experiments:
[1] = biological target: T1, Recombinant RAGE V domain (residues 24–121) (UniProt Q15109 24-121); assay: ITC; S100P (2.0 mM, syringe) titrated into RAGE V domain (0.06 mM, cell); MicroCal VP-ITC; 25°C; 20 mM Tris-HCl pH 7.0, 100 mM NaCl, 4 mM CaCl2; single-site model; similar approach for the S100P mutants; conditions: both partners purified
T1 construct: Receptor for advanced glycation end products (RAGE), V domain, residues 24-121; Purified as a monomer; 15N- or 15N,13C-labelled or unlabelled in the NMR experiments; also called V domain of RAGE; not shown: His6, N-terminal, cleaved
T1 sequence (Q15109 24-121): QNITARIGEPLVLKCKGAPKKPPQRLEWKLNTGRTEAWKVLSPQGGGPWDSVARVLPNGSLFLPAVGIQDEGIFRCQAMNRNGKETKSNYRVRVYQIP

[2] = biological target: T1, Recombinant RAGE V domain (residues …); assay: other fluorescence titration; intrinsic tryptophan fluorescence of 2 µM RAGE V domain (excitation 295 nm, emission 348.5 nm), S100P added in increments; 20 mM Tris-HCl pH 7.0, 100 mM NaCl, 4 mM CaCl2; 25°C; one-site binding model; conditions: both partners purified
[3] = biological target: T1, Recombinant RAGE V domain (residues …); assay: cell-based or functional assay
[4] = biological target: the molecule itself; assay: SEC; S100P proteins on a Superdex 75 column (1.6×60 cm), last step of purification

Kd [1]: 6.2 ± 0.1 µM
dH [1]: 4.094 ± 0.02 kcal/mol
stoichiometry N [1]: 1.07 ± 0.03
Kd [2]: ~6.8 µM
B1: Recombinant wild-type S100P (residues 1–95), calcium-bound (natural protein, UniProt P25815 1-95, looked up)
chain: MTELETAMGMIIDVFSRYSGSEGSTQTLTKGELKVLMEKELPGFLQSGKDKDAVDKLLKDLDANGDAQVDFSEFIVFVAAITSACHKYFEKAGLK
notes: S100P, residues 1-95; 15N-labelled or unlabelled in the NMR experiments; it names no tag; also called WS100P; source: E. coli BL21(DE3), pET-20b(+), purified (size exclusion chromatography, Superdex 75)
SW-480 cell proliferation (MTT assay, 48 h), 100 nM wild-type S100P, viable cell count against the control [3]: ~1.5 fold
stoichiometry N [4]: 2

Kd [1]: 22.8 µM and 23.6 µM
B2: S100P E5A single mutant (natural protein, UniProt P25815 1-95, looked up)
chain: B1 chain with E5A
notes: S100P, residues 1-95, with E5A; Used with 4 mM CaCl2; source: E. coli BL21(DE3), pET-20b(+), purified (size exclusion chromatography, Superdex 75)
stoichiometry N [4]: 2

Kd [1]: 878 µM
B3: S100P D13A single mutant (natural protein, UniProt P25815 1-95, looked up)
chain: B1 chain with D13A
notes: S100P, residues 1-95, with D13A; Used with 4 mM CaCl2; source: E. coli BL21(DE3), pET-20b(+), purified (size exclusion chromatography, Superdex 75)
stoichiometry N [4]: 2

B4: S100P F44G/Y88G/F89G triple mutant (natural protein, UniProt P25815 1-95, looked up)
chain: B1 chain with F44G, Y88G, F89G
notes: S100P, residues 1-95, with F44G, Y88G and F89G; Section 2.2 prints 'F44G/Y89G/F89G'; every other place prints F44G/Y88G/F89G; Used with 4 mM CaCl2; also called S100P F44G/Y89G/F89G (as printed in the methods); source: E. coli BL21(DE3), pET-20b(+), purified (size exclusion chromatography, Superdex 75)
stoichiometry N [4]: 2
